Test results: the supplement of paper PMC10126150
± gives the standard deviation of the averaged measurements.

Test system: ATP
Experiment: switch fluorescence ratio, 500 uM ATP over buffer (Cy3 cluster intensity, sum of 5 cycles each) (fold (ratio)); higher = stronger signal-on switching upon ATP binding; sequences stand for … in TCGTCGGCAGCGTCAGATGTGTATAAGAGACAGTTTTTTTTTTTTTTTTTTTTTTTTT…TC
Settings: aptamer strand: ATP DNA aptamer (quencher-CACCTGGGGGAGTATTGCGGAGGAAGG + anchor), 100 nM annealed; ATP concentration: 500 uM
Summary of the method: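 Clusters carrying Cy3-labelled switching strands on a modified Illumina MiSeq flow-cell were annealed to 100 nM quencher-labelled ATP aptamer and imaged in selection buffer. They were imaged again after 15 min with 500 uM ATP at 22 °C, over five buffer/ATP cycles with NaOH stripping and re-annealing in between. For each cluster, the fluorescence ratio is the summed Cy3 intensity of the target cycles divided by that of the buffer cycles, averaged per switch-domain sequence. Clusters outside 100-1000 RFU were left out.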
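Also: ATP exposure 15 min at 22 °C before imaging.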

Row | Sequence | switch fluorescence ratio
1 | GATACTGGGG | 1.01 ± 0.028
2 | TTGCTCATAT | 1.02 ± 0.049
3 | TGCCCCTGGC | 0.978 ± 0.042
4 | TTTAGTTTTT | 0.996 ± 0.042
5 | GATGAGTTG | 1.01 ± 0.012
6 | AGTCATGTGG | 1.01 ± 0.019
7 | TATAATTAAT | 0.982 ± 0.029
8 | ATTAAGTGTG | 0.99638 ± 0.00091
9 | TCCAGAAGGC | 1.09 ± 0.13
10 | TCGAAAATAT | 1.5 ± 1
11 | TGGGTGAGGG | 1 ± 0.0037
12 | CTTGGTCCCG | 1.01 ± 0.011
13 | TCCTTCGGTT | 1.393 ± 0.0023
14 | TTACATATCT | 1.03 ± 0.0043
15 | CAGGGGGGCG | 1.04 ± 0.088
16 | TACGTTTTAA | 0.9938 ± 0.0087
17 | TAAGTCCTT | 1.01 ± 0.048
18 | GGGTTAAAAC | 1.01 ± 0.043
19 | TTTCGTTCGC | 1.302 ± 0.013
20 | AGGGTTAGTC | 1.03 ± 0.058
21 | CGATTCGGGG | 1.01 ± 0.03
22 | ATGGGAGGGA | 1.01 ± 0.021
23 | TCAAATTATG | 1.01 ± 0.035
24 | AAGGTAGCAC | 1.03 ± 0.011
25 | TTAGGAACTC | 0.982 ± 0.014

Row | Sequence | switch fluorescence ratio
26 | GTCATTGGAG | 1.008 ± 0.0079
27 | TGGTGGTTTT | 1.03 ± 0.025
28 | TTTGAAAAGG | 1.01 ± 0.039
29 | GAATGTATGG | 1.04 ± 0.049
30 | ACATAATATT | 1.06 ± 0.036
31 | CTTGGATGTC | 0.985 ± 0.03
32 | ATGTGGCTGA | 1.021 ± 0.0038
33 | GTCAGAGTGG | 0.991 ± 0.024
34 | TCTTTTGGGA | 1.16 ± 0.29
35 | CGAATTGATA | 1.01 ± 0.013
36 | GTTTTATATG | 0.978 ± 0.011
37 | GGGAGAACGG | 0.977 ± 0.046
38 | ACATGAATTT | 1 ± 0.029
39 | TGATGAATTG | 1.04 ± 0.002
40 | CAGGGTTGGC | 1.03 ± 0.012
41 | ATGATCTGAG | 1.028 ± 0.005
42 | TAAACCCACT | 1.24 ± 0.063
43 | CCGAATCCAG | 1.111 ± 0.0099
44 | TTTGTATTTT | 0.992 ± 0.026
45 | GCGTTCCTTG | 1.071 ± 0.0017
46 | TGAGTCTGCT | 0.998 ± 0.087
47 | TGGGAAAACT | 1.07 ± 0.12
48 | TGTAAGTCTT | 0.966 ± 0.032
49 | TGATCACTAT | 1.007 ± 0.0076
50 | CGGAAGGGCC | 0.995 ± 0.03

Row | Sequence | switch fluorescence ratio
51 | AGTTTATTAT | 1.02 ± 0.015
52 | TGGGGTTCAG | 1.01 ± 0.019
53 | TCTTACGATC | 1 ± 0.021
54 | TTTTGGCCAG | 0.991 ± 0.061
55 | ACCCTAGGGT | 0.994 ± 0.035
56 | CCGGACGCGT | 1.52 ± 0.26
57 | CCTTGTGCAG | 1.25 ± 0.018
58 | TCGGAGTAG | 1.04 ± 0.031
59 | GTTCACTTTT | 1.02 ± 0.036
60 | AAAAAAGGAC | 1.03 ± 0.044
61 | CGGTTTAAGC | 0.994 ± 0.046
62 | AGGGGGAAGA | 1 ± 0.019
63 | AAAGTCAAGG | 0.9933 ± 0.0029
64 | GCTAGTGCTA | 0.996 ± 0.04
65 | GCTGGATTGG | 0.965 ± 0.016
66 | CTAGGCTCAA | 1.004 ± 0.004
67 | TGGCTTTGTT | 0.9888 ± 0.0041
68 | AAAGAAACTC | 1.47 ± 0.7
69 | ATAACAAGGG | 1.04 ± 0.089
70 | CTTATTAAGC | 1.05 ± 0.011
71 | GCCTTGTGCA | 0.995 ± 0.017
72 | CTGGGGAGGT | 0.9946 ± 0.0044
73 | CGGGAGGGAC | 0.994 ± 0.057
74 | GCTTTCGGGC | 1.01 ± 0.045
75 | TAAGCCCACG | 1.09 ± 0.023

Row | Sequence | switch fluorescence ratio
76 | TTAATTTTCG | 1.04 ± 0.066
77 | TCGGAGGAAG | 1.02 ± 0.012
78 | TCGGAGGTGT | 1.01 ± 0.027
79 | GAATGGGACG | 1 ± 0.021
80 | ATTTAGGGGT | 1.02 ± 0.057
81 | GATATCCGAG | 1.05 ± 0.011
82 | TTATATATTG | 0.969 ± 0.029
83 | AAGTGTATGG | 0.997 ± 0.0098
84 | GGGGTTGGGT | 1.03 ± 0.026
85 | CAAAAGAACG | 0.975 ± 0.031
86 | TTGTTTTGGT | 0.966 ± 0.016
87 | GCTCGTTAGG | 0.995 ± 0.029
88 | CGTCACTAAT | 1.21 ± 0.25
89 | ATCTAGATTG | 0.982 ± 0.042
90 | AGTTTAATGT | 1 ± 0.027
91 | CAGGCGCAGG | 1.06 ± 0.051
92 | TTTAGACGGG | 0.965 ± 0.028
93 | TTGCAGGGGG | 0.998 ± 0.027
94 | TAACTGTTTT | 1.06 ± 0.056
95 | ATAGGTAGGT | 0.996 ± 0.004
96 | GCTTCTATTG | 1.001 ± 0.00067
97 | CGCGATAGTA | 1.27 ± 0.026
98 | TTGAGGGATG | 0.992 ± 0.013
99 | TATGGATCGC | 1.01 ± 0.026
100 | TGGTTTAAGG | 0.9844 ± 0.0088

Row | Sequence | switch fluorescence ratio
101 | TTGGGAGGGA | 1 ± 0.038
102 | TGGATTTGGG | 0.9969 ± 0.0066
103 | TTTACAAATT | 1 ± 0.02
104 | GTTGTTGCAA | 1.13 ± 0.21
105 | CGGCGGGAGC | 1.05 ± 0.038
106 | TTTACAGGTA | 0.981 ± 0.021
107 | CTTAGATCTG | 1 ± 0.027
108 | AACTGGCAAT | 1.5 ± 0.072
109 | AAGTGCGGGA | 0.9967 ± 0.0086
110 | CAGTGTGAGC | 1.01 ± 0.039
111 | GGGTCAGTTT | 1.04 ± 0.054
112 | TTTAATACTG | 1.08 ± 0.089
113 | GGTATTGTTG | 1 ± 0.024
114 | GCAGCAGACG | 1.2 ± 0.076
115 | AGGGCGCCCG | 0.9884 ± 0.0023
116 | AAAAAAAAGG | 1 ± 0.05
117 | CCGTTGCTTT | 1.35 ± 0.14
118 | CGGTTTTACT | 1.04 ± 0.021
119 | CGGAGTTGCG | 0.98 ± 0.013
120 | TCGTACGAAG | 1 ± 0.032
121 | TTTGAGAGCT | 0.977 ± 0.014
122 | TATTTAAGTG | 1.039 ± 0.0092
123 | ACGCTTCTTG | 1 ± 0.028
124 | TAACGGCTGC | 1 ± 0.051
125 | TTGATGGGGT | 1.03 ± 0.1

Row | Sequence | switch fluorescence ratio
126 | TTTGAGTGGC | 0.969 ± 0.041
127 | ATAGCAGGGT | 1 ± 0.012
128 | GTTGAGGGA | 1.04 ± 0.079
129 | TCCGAGGGCT | 1.59 ± 0.084
130 | TTAAACAAGC | 0.998 ± 0.017
131 | ATTAGTCAAT | 1.0167 ± 0.0006
132 | CGCGGGGGGA | 1.03 ± 0.06
133 | TGCTGTCGGC | 1.03 ± 0.029
134 | TTGGTCCCGA | 1.001 ± 0.0014
135 | TAGCACGCGG | 0.9748 ± 0.0041
136 | GCTTTTTGC | 0.951 ± 0.065
137 | GGTGTGCCAA | 1 ± 0.022
138 | TACAGGGGGT | 1.02 ± 0.062
139 | TCTAGGGGTG | 1.03 ± 0.025
140 | TGTGAAGGGC | 1.02 ± 0.029
141 | TTAAGCTGGC | 1.05 ± 0.056
142 | TTCCACGCGG | 1.268 ± 0.0091
143 | TTTGCTTTGG | 0.997 ± 0.019
144 | CACGAGGTTG | 0.992 ± 0.02
145 | ACAAAACATG | 1.16 ± 0.15
146 | GGCCGGCAAC | 0.9996 ± 0.0039
147 | TTCTCTAGGG | 0.99 ± 0.0049
148 | TTAGCGTGCT | 0.994 ± 0.0073
149 | TGGGGAAGTG | 0.987 ± 0.025
150 | ATCGTGATCC | 1.016 ± 0.0094

Row | Sequence | switch fluorescence ratio
151 | TCTTCTATCT | 0.985 ± 0.039
152 | GTCGTCTTAC | 1.05 ± 0.045
153 | GTTAGGCCAG | 0.986 ± 0.041
154 | TGACTCCAGG | 1.23 ± 0.023
155 | AGCTGCATG | 0.997 ± 0.024
156 | CATTTTTGAT | 1.01 ± 0.02
157 | TCTTTGTATG | 0.991 ± 0.017
158 | GAGCTTGCGA | 1.03 ± 0.044
159 | ATGCTATAGT | 1.021 ± 0.0025
160 | ATAACCGCGG | 0.994 ± 0.025
161 | AATTATCCTT | 1.07 ± 0.037
162 | CAAGTAGGG | 0.956 ± 0.052
163 | GAGGTTGTTA | 0.993 ± 0.032
164 | TCGGGTACTG | 0.979 ± 0.093
165 | GCCGACGGTG | 1 ± 0.019
166 | TAGATGCATG | 1 ± 0.031
167 | GCGGTGAGAT | 0.989 ± 0.012
168 | TCATAACTTT | 0.984 ± 0.017
169 | CTTTTTGTTT | 1.01 ± 0.041
170 | TTTTATAGGG | 0.948 ± 0.027
171 | GGTGGCGGAT | 1.07 ± 0.033
172 | GCTTTAGAGA | 0.985 ± 0.019
173 | GGCCTGGTGT | 1.29 ± 0.21
174 | GGTAATTGTT | 0.998 ± 0.025
175 | ACGGTAACTC | 1.27 ± 0.03

Row | Sequence | switch fluorescence ratio
176 | TAGTGAGGGT | 1.01 ± 0.021
177 | CGAAGTCGGG | 0.955 ± 0.015
178 | AGGGTTGGAC | 0.9774 ± 0.0057
179 | TTTCGGGACT | 1.03 ± 0.048
180 | AAGGGGGCGG | 1 ± 0.015
181 | TATATGGATT | 0.999 ± 0.015
182 | GCAATAATTT | 2.83 ± 0.52
183 | GTTGGAATGA | 1 ± 0.037
184 | TTTTAGATGA | 0.966 ± 0.027
185 | GCGCGTTAGC | 1.007 ± 0.0014
186 | TTTGGCTATT | 0.976 ± 0.028
187 | GGGGACGTAC | 1.47 ± 0.22
188 | AGGATACGGT | 1.0054 ± 0.00059
189 | GCGATTAAGG | 0.9904 ± 0.0013
190 | TAGGATTTAG | 0.994 ± 0.039
191 | ATGTTATTTG | 0.963 ± 0.022
192 | ATACGAGAAT | 1 ± 0.023
193 | GGATGGGCTA | 0.999 ± 0.025
194 | GAACGGCTCG | 1.023 ± 0.0038
195 | TTTGGACGTC | 0.992 ± 0.037
196 | GCACGGGCAT | 1.01 ± 0.035
197 | CGGATATGGA | 0.988 ± 0.058
198 | CGGTTTGATT | 1.04 ± 0.073
199 | TTTGAGGTCT | 1.05 ± 0.072
200 | GTGGCTGGGA | 0.974 ± 0.026
